Measurements reported in article PMC10487585, “Refolding Increases the Chaperone-like Activity of αH-Crystallin and Reduces Its Hydrodynamic Diameter to That of α-Crystallin” (International Journal of Molecular Sciences, 2023).

Legend:
[1] = molecular target: UV-damaged βL-crystallin (bovine (endogenous in steer lens))
[2] = molecular target: the molecule itself; test: dynamic light scattering; ZetaSizer S nano; protein 1 mg/mL in PBS (40 mM sodium phosphate, pH 7.0, 100 mM NaCl, 1 mM EDTA, 3 mM NaN3); native protein without urea, or after renaturation from urea
αB-crystallin = molecular target: T1, αB-crystallin (bovine (endogenous in steer lens), UniProt P02510 1-175); test: SEC; Sephacryl S300HR, 2.5 × 90 cm, 1.6 mL/min, calibrated with standard proteins; polypeptides of the preparations and fractions by SDS-PAGE; details: both partners purified
T1 construct: αB-crystallin (19.8 kDa), identified by mass on SDS-PAGE; source: purified from lenses of 6-month-old steers as a part of α-crystallin and HMWA
T1 sequence (looked up): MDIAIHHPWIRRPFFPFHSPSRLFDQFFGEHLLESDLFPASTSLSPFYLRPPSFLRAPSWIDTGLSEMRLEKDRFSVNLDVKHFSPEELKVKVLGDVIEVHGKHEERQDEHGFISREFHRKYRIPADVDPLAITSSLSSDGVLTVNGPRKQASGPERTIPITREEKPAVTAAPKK

“refolded HMWA (from UniProt P02470 1-173; P02510 1-175) (complex)” showed an abscissa point of intersection (reciprocal of AC0) of the relative aggregation rate of UV-damaged βL-crystallin against the chaperone/target protein ratio; points with accelerated aggregation left out (mol/mol (chaperone/target protein)) [1] of 0.38.

“αH-crystallin, high molecular weight aggregate (native) (from UniProt P02470 1-173; P02510 1-175) (complex)” showed an abscissa point of intersection (reciprocal of AC0) of the relative aggregation rate of UV-damaged βL-crystallin against the chaperone/target protein ratio (mol/mol (chaperone/target protein)) [1] of 0.46 and an initial adsorption capacity AC0 from the aggregation kinetics of UV-damaged βL-crystallin (37 °C, 360 nm): target protein/chaperone mol/mol ratio, counted on monomers (mol/mol (target protein/chaperone)) [1] of 2.

B1: α-crystallin (native, from the lens cortex) (complex, bovine (endogenous in steer lens))
chain 1: MDIAIQHPWFKRTLGPFYPSRLFDQFFGEGLFEYDLLPFLSSTISPYYRQSLFRTVLDSGISEVRSDRDKFVIFLDVKHFSPEDLTVKVQEDFVEIHGKHNERQDDHGYISREFHRRYRLPSNVDQSALSCSLSADGMLTFSGPKIPSGVDAGHSERAIPVSREEKPSSAPSS
chain 2: MDIAIHHPWIRRPFFPFHSPSRLFDQFFGEHLLESDLFPASTSLSPFYLRPPSFLRAPSWIDTGLSEMRLEKDRFSVNLDVKHFSPEELKVKVLGDVIEVHGKHEERQDEHGFISREFHRKYRIPADVDPLAITSSLSSDGVLTVNGPRKQASGPERTIPITREEKPAVTAAPKK
notes: αA-crystallin, from steer lens; identified by mass on SDS-PAGE (20 kDa); αB-crystallin, from steer lens; identified by mass on SDS-PAGE (19.8 kDa); Polydisperse oligomer; by SDS-PAGE αA-crystallin 30%, αB-crystallin 60%, truncated α-crystallin 10% (a mixture of αA and αB fragments); also called authentic α-crystallin; native α-crystallin; source: purified from lenses of 6-month-old steers (gel …)
B1: binds [2].

B2: αA-crystallin (natural protein, bovine (endogenous in steer lens), UniProt P02470 1-173, looked up)
chain: MDIAIQHPWFKRTLGPFYPSRLFDQFFGEGLFEYDLLPFLSSTISPYYRQSLFRTVLDSGISEVRSDRDKFVIFLDVKHFSPEDLTVKVQEDFVEIHGKHNERQDDHGYISREFHRRYRLPSNVDQSALSCSLSADGMLTFSGPKIPSGVDAGHSERAIPVSREEKPSSAPSS
notes: αA-crystallin (20 kDa), identified by mass on SDS-PAGE; source: purified from lenses of 6-month-old steers as a part of α-crystallin and HMWA
B2: binds (αB-crystallin).

B3: renatured α-crystallin (complex, bovine (endogenous in steer lens))
chain 1: MDIAIQHPWFKRTLGPFYPSRLFDQFFGEGLFEYDLLPFLSSTISPYYRQSLFRTVLDSGISEVRSDRDKFVIFLDVKHFSPEDLTVKVQEDFVEIHGKHNERQDDHGYISREFHRRYRLPSNVDQSALSCSLSADGMLTFSGPKIPSGVDAGHSERAIPVSREEKPSSAPSS
chain 2: MDIAIHHPWIRRPFFPFHSPSRLFDQFFGEHLLESDLFPASTSLSPFYLRPPSFLRAPSWIDTGLSEMRLEKDRFSVNLDVKHFSPEELKVKVLGDVIEVHGKHEERQDEHGFISREFHRKYRIPADVDPLAITSSLSSDGVLTVNGPRKQASGPERTIPITREEKPAVTAAPKK
notes: αA-crystallin, from steer lens; as in m1; αB-crystallin, from steer lens; Same polypeptides as m1, reassembled from monomers after urea
B3: binds [2].
